Test system: MS2 coat protein
Test: apparent KD of MS2 coat protein; designed switch direction (-1 OFF switch, 1 ON switch): -1; higher = weaker reporter binding
Summary of the method: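 Transcription of designed RNA switches on Illumina chips was done by stalled E. coli RNA polymerase. SNAP-549-labelled MS2 coat protein was then titrated in doubling steps from 0.7 or 1.5 nM to 3 µM, with steps of 0.8–1.5 h at the lowest and 10–20 min at the highest concentration. The per-design median over clusters of curve-fitted normalised fluorescence is reported as apparent KD.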

[1] = Eterna round: R95, input ligand: microRNA oligo, concentration not stated
[2] = input ligand: microRNA oligo, concentration not stated

Sequence	apparent KD of MS2 coat protein (input ligand: FMN 200 uM)	apparent KD of MS2 coat protein (input ligand: none)	apparent KD of MS2 coat protein [2]	also measured
UAGUGAGCGUGAGGAAUAUACAUGAGGAUCACCCAUGUUUGCUAAUAUAUUGCUCGUCUUAUAACAACAAUUAACUG [Mod-hoo-honey#abc] (Eterna round: R97, puzzle: Sensor, turn-off variant 1)	27.5 nM	20.9 nM		
UAGUGGCAAGGAUAUACAGUGGAGAGGAUUGCAAGAGGUGGACAUGAGGAUCACCCAUGUAGAAGGUGCAGAGA [JR_Exclu2_Sub023] (puzzle: Exclusion 2)				apparent KD of MS2 coat protein [1]: 203 nM
UAGUUACAUGAGGAUCACCCAUGUGAGGAUAUGAGUCAGUCACGGUGACGUGGCUGACUCAGAAGGCACAAUGG [Mat - Exclusion 1 - JL Mod - D45] (Eterna round: R97, puzzle: Exclusion 1)	77.4 nM	256 nM		
UAUAAGCUAGGAUAUACUGGCACACAACUCAUAAAUCCACGACAUGAGGAUCACCCAUGUAGAAGGAGCAAAUA [EX2 A.27] (Eterna round: R97, puzzle: Exclusion 2)	18.8 nM	14.4 nM		
UAUAUAUAGUAAGGAUAUGUAAUUAAUUUAUAAACAGAAGGUACUGACAUGAGGAUCACCCAUGUUUUAGUGUGGGCAUGUAGA [JMF's solution 35] (Eterna round: R96, puzzle: Exclusion NG 1)			71.6 nM	
UAUAUAUAGUAAGGAUAUGUAAUUAUUUAAUAAACAGAAGGUACUGACAUGAGGAUCACCCAUGUUUUAGUGUGGGCAUGUAGA [JMF's solution 41] (Eterna round: R96, puzzle: Exclusion NG 1)			69.4 nM	
UAUAUAUAGUAAGGAUAUGUAUAUAUUUGAUAAACAGAAGGUACUGACAUGAGGAUCACCCAUGUUUUAGUGUGGGCAUGUAGA [JMF's solution 64] (Eterna round: R96, puzzle: Exclusion NG 1)			48.4 nM	
UAUAUAUAGUAAGGAUAUGUAUUAAGUUUAUAAACAGAAGGUACUGACAUGAGGAUCACCCAUGUUUUAGUGUGGGCAUGUAGA [JMF's solution 76] (Eterna round: R96, puzzle: Exclusion NG 1)	122 nM	78.6 nM	52.6 nM	
UAUAUAUAGUAAGGAUAUGUAUUAAUCUUAUAAACAGAAGGUACUGACAUGAGGAUCACCCAUGUUUUAGUGUGGGCAUGUAGA [JMF's solution 79] (Eterna round: R96, puzzle: Exclusion NG 1)			54.8 nM	
UAUAUAUAGUAAGGAUAUGUAUUAAUUCUAUAAACAGAAGGUACUGACAUGAGGAUCACCCAUGUUUUAGUGUGGGCAUGUAGA [JMF's solution 82] (Eterna round: R96, puzzle: Exclusion NG 1)			41.3 nM	
UAUAUAUAGUAAGGAUAUGUAUUAAUUUCAUAAACAGAAGGUACUGACAUGAGGAUCACCCAUGUUUUAGUGUGGGCAUGUAGA [JMF's solution 85] (Eterna round: R96, puzzle: Exclusion NG 1)	88.2 nM	81.2 nM	54.2 nM	
UAUAUAUAGUAAGGAUAUGUAUUAAUUUUGUAAACAGAAGGUACUGACAUGAGGAUCACCCAUGUUUUAGUGUGGGCAUGUAGA [JMF's solution 87] (Eterna round: R96, puzzle: Exclusion NG 1)			111 nM	
UAUAUAUAGUAAGGAUAUGUAUUCAUUUUAUAAACAGAAGGUACUGACAUGAGGAUCACCCAUGUUUUAGUGUGGGCAUGUAGA [JMF's solution 10] (Eterna round: R96, puzzle: Exclusion NG 1)			64.1 nM	
UAUAUAUAGUAAGGAUAUGUAUUUAUUUGAUAAACAGAAGGUACUGACAUGAGGAUCACCCAUGUUUUAGUGUGGGCAUGUAGA [JMF's solution 20] (Eterna round: R96, puzzle: Exclusion NG 1)			69.9 nM	
UAUAUAUAGUAAGGAUAUGUAUUUAUUUUACAAACAGAAGGUACUGACAUGAGGAUCACCCAUGUUUUAGUGUGGGCAUGUAGA [JMF's solution 24] (Eterna round: R96, puzzle: Exclusion NG 1)			48.8 nM	
UAUAUAUAGUAAGGAUAUGUAUUUCUUUUAUAAACAGAAGGUACUGACAUGAGGAUCACCCAUGUUUUAGUGUGGGCAUGUAGA [JMF's solution 12] (Eterna round: R96, puzzle: Exclusion NG 1)			63.1 nM	
UAUAUGUCAGGAUAUCGAUUGGAAUGGAAUUUAGUUUUGGUUGAGAAGGGACAUGAGGAUCACCCAUGUUUUUC [EX4 #62] (Eterna round: R97, puzzle: Exclusion 4)	76.7 nM	32.1 nM		

Sequence	apparent KD of MS2 coat protein (input ligand: FMN 200 uM)	apparent KD of MS2 coat protein (input ligand: none)	apparent KD of MS2 coat protein [2]	also measured
UAUCCACAUGAGGAUCACCCAUGUGAGGAUAUGUCCAUAUUCGGCAAAUCGGAUAUGGACAGAAGGCACACCGG [JR_Exclusion1_Sub011] (Eterna round: R96, puzzle: Exclusion 1)	114 nM	35.2 nM	28.5 nM	
UAUCCACAUGAGGAUCACCCAUGUGAGGAUAUGUCCAUAUUCGGCAAAUCGGAUAUGGACAGAAGGCACACCGG [JR_Exclusion1_Sub011] (puzzle: Exclusion 1)				apparent KD of MS2 coat protein [1]: 35.4 nM
UAUCCGACAGGAUAUACAUGAGGAUCACCCAUGUACCCACUGUAUGUAACCUCAAACUGUAGAAGGGUUGAUAU [Eternabot (L1) Solution 18] (Eterna round: R97, puzzle: Exclusion 3)	21.2 nM	28.6 nM		
UAUCGCAAGCGAAGAUCCCACAUGAGGAUCACCCAUGUGCUCGUCUUAUAAGGUACUGUGACGAUAGUCACGGUACC [Mat - Sensor, turn-off var - Eli Mod - D77] (Eterna round: R97, puzzle: Sensor, turn-off variant 1)	33.6 nM	24.9 nM		
UAUCGGGACUGAGGAUAUUCGUUCGAACACGAAGAAGAAGGUAGUGUCAGGGACAUGAGGAUCACCCAUGUGAUCUCAGUCCUA [JL ViennaUCT Erinle mod 2] (Eterna round: R96, puzzle: Exclusion NG 1)	130 nM	100 nM	67.9 nM	
UAUCUAUGAGGAUAUCAUAGUAGUUACAUGAGGAUCACCCAUGUCAUGACAGAACUGGGAUGAGAAGGCAUUCGUU [Eternabot (L2) Solution 73] (Eterna round: R97, puzzle: Exclusion 5)	291 nM	447 nM		
UAUGAGUCAGGAUAUUAGUAGUGUGUGGAUACAUAUAUUGCUGAGAAGGGACAUGAGGAUCACCCAUGUAUAAG [JR_Ex4_Sub056] (Eterna round: R97, puzzle: Exclusion 4)	65.3 nM	26.1 nM		
UAUGAUUUAGGAUAUUGUACUGCUGACAUGAGGAUCACCCAUGUAUGCUAACUCGGCCGUCGAGAAGGAAAUUAUG [BotMod 28 - Jieux - Exclusion 5] (Eterna round: R97, puzzle: Exclusion 5)	26.1 nM	52.6 nM		
UAUGGGUCUACAGGAUAUUCCAGUAGAUAGAAGGGAGAAGGGUGGGCCUAUACUUGAGGAUCACCCAAGUGAAAAGGGUCAUCC [Mutated MS2 EX1.13] (Eterna round: R96, puzzle: Exclusion NG 1)	27.9 nM	36.6 nM	24.8 nM	
UAUUAAUGCAAGGAUAUGCUUUUAAUUUUUUUUGCAGAAGGUGCAACAUGAGGAUCACCCAUGUUUCAGGGUAU [JR_E6_Sub031] (puzzle: Exclusion 6)				apparent KD of MS2 coat protein [1]: 35.1 nM
UAUUAGCAAGCGAAAUCCCACAUGAGGAUCACCCAUGUAAAUAAAAGCUCCAGAAUUACUGGAGCAGCUCGUCUUAU [Winner reversed engineered 18] (Eterna round: R97, puzzle: Sensor, turn-off variant 1)	29.8 nM	24.5 nM		
UAUUAGCAAGCGAGAUCCCACAUGAGGAUCACCCAUGUAGCAUCCAGAAUUACUGGGUGCAAAAGCUCGUCUUAUUA [Winner reversed engineered 4] (Eterna round: R97, puzzle: Sensor, turn-off variant 1)	25.4 nM	26.1 nM		
UAUUAGCAAGUAAGAUCCCACAUGAGGAUCACCCAUGUGCUCGUCUUAUAAGGUACUGUGACGAAAGUCACGGUACC [Sensor 3, v1 - 88] (Eterna round: R96, puzzle: Sensor v3, turn-off variant 1)	16.7 nM	18.1 nM	313 nM	
UAUUAGCAAGUAAGAUCCCACAUGAGGAUCACCCAUGUGCUCGUCUUAUAAGGUACUGUGACGAAAGUCACGGUACC [Sensor 3, v1 - 88] (puzzle: Sensor v3, turn-off variant 1)				apparent KD of MS2 coat protein (Eterna round: R95, input ligand: FMN 200 uM): 12.6 nM; apparent KD of MS2 coat protein [1]: 1040 nM; apparent KD of MS2 coat protein (Eterna round: R95, input ligand: none): 16.5 nM
UAUUAGCAAGUAAGAUCCCACAUGAGGAUCACCCAUGUGCUCGUCUUAUAAGGUACUGUGACGAAAGUCACGGUACC [Sensor 3, v1 - 95 v1] (Eterna round: R97, puzzle: Sensor, turn-off variant 1)	18.3 nM	19.2 nM		
UAUUAGCAAGUGAGAUCCCACAUGAGGAUCACCCAUGUGCUCGUCUUAUAAGGUACUGUGACGAGAGUCACGGUACC [Mat - Sensor, turn-off var - Eli Mod - D2] (Eterna round: R97, puzzle: Sensor, turn-off variant 1)	46.1 nM	44.7 nM		
UAUUAGCAAGUGAGGUCCCACAUGAGGAUCACCCAUGUGCUCGUCUUAUAAGGUACUGUGACGAAAGUCACGGUACC [Sensor 3, v1 - 95 v4] (Eterna round: R97, puzzle: Sensor, turn-off variant 1)	48.7 nM	40.8 nM		

— the supplement of paper PMC9170038
